Article PMC9394474

Target: human hisTRIM7-PRYSPRY (human) (UniProt Q9C029)
Experiment: ITC

Which Kd does the source give for ac-LLQ (peptide) here?
Its Kd is 39 µM.

With dipeptide LQ as the substance, how does the Kd read?
The Kd was 200 µM.
